# Measured values published in PMC11770034, “Characterization of the oxygen-tolerant formate dehydrogenase from Clostridium carboxidivorans” (Frontiers in Microbiology, 2025).
# Test system: T1, NC(=O)C1=CN([C@@H]2O[C@H](COP(=O)(O)OP(=O)(O)OC[C@H]3O[C@@H](n4cnc5c(N)ncnc54)[C@H](O)[C@@H]3O)[C@@H](O)[C@H]2O)C=CC1
# T1 construct: Mo form
# Experiment: purified protein
# Assay type: biochemical, Clostridium carboxidivorans
# Conditions: 100 mM sodium bicarbonate, 50 mM Bis-Tris pH 6.8, 30 °C, oxic, Mo-loaded enzyme, part of preparation may be inactive
substance,measurement,value
ccFDH (Mo-ccFDH) (Clostridium carboxidivorans P7; U139C),Km,60 ± 7 µM
same,Vmax,5.83 µmol/min
same,kcat,0.02 ± 0.0008 s⁻¹
same,kcat/Km,310 ± 84 M⁻¹ s⁻¹
